The labels stand for the following.
T1: recombinant cynomolgus TREM2 ECD (cynomolgus, UniProt A0A2K5UY34 49-204)
T1 construct: extracellular domain; also called Cyno TREM2
T1 sequence: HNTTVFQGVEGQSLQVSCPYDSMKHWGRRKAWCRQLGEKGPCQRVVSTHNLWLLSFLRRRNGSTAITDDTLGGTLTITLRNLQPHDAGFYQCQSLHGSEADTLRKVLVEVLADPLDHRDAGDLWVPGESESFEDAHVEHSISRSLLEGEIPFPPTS

T2: recombinant human TREM2 ECD (human, UniProt Q9NZC2 19-172)
T2 construct: TREM2' / 'TREM2 ECD'; also called hTREM2; Human TREM2 (Biacore)
T2 sequence: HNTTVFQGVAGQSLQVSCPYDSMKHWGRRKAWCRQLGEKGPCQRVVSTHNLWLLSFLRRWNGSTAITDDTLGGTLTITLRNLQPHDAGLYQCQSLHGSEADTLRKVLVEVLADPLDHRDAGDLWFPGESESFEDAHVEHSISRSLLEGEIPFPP

T3: human TREM2 expressed on HEK293-H6 cells (human, UniProt Q9NZC2 19-230)
T3 construct: Wild type human TREM2 stably co-expressed with DAP12 in HEK 293 cells (clone HEK293-H6); also called Human TREM2 HEK; TREM2 expressed by HEK293-H6 cells
T3 sequence: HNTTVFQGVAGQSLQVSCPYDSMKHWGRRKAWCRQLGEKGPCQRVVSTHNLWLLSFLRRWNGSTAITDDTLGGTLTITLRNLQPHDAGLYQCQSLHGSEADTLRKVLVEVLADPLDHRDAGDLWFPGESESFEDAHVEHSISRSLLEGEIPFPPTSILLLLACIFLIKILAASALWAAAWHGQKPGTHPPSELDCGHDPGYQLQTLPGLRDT

B1: ATV:TREM2 #5 (antibody, human IgG1, kappa, L234A L235A)
heavy 1: EVQLVESGGGLVQPGGSLRLSCAASGFTFTDFYMSWVRQAPGKGLEWVSVIRNKANAYTAGYNPSVKGRFTISRDNSKNTLYLQMNSLRAEDTAVYYCARLTYGFDYWGQGTLVTVSSASTKGPSVFPLAPSSKSTSGGTAALGCLVKDYFPEPVTVSWNSGALTSGVHTFPAVLQSSGLYSLSSVVTVPSSSLGTQTYICNVNHKPSNTKVDKKVEPKSCDKTHTCPPCPAPEAAGGPSVFLFPPKPKDTLMISRTPEVTCVVVDVSHEDPEVKFNWYVDGVEVHNAKTKPREEQYNSTYRVVSVLTVLHQDWLNGKEYKCKVSNKALPAPIEKTISKAKGQPREPQVYTLPPSRDELTKNQVSLWCLVKGFYPSDIAVEWESYGTEWSNYKTTPPVLDSDGSFFLYSKLTVSKEEWQQGFVFSCSVLHEALHSHYTQKSLSLSPGK
heavy 2: EVQLVESGGGLVQPGGSLRLSCAASGFTFTDFYMSWVRQAPGKGLEWVSVIRNKANAYTAGYNPSVKGRFTISRDNSKNTLYLQMNSLRAEDTAVYYCARLTYGFDYWGQGTLVTVSSASTKGPSVFPLAPSSKSTSGGTAALGCLVKDYFPEPVTVSWNSGALTSGVHTFPAVLQSSGLYSLSSVVTVPSSSLGTQTYICNVNHKPSNTKVDKKVEPKSCDKTHTCPPCPAPEAAGGPSVFLFPPKPKDTLMISRTPEVTCVVVDVSHEDPEVKFNWYVDGVEVHNAKTKPREEQYNSTYRVVSVLTVLHQDWLNGKEYKCKVSNKALPAPIEKTISKAKGQPREPQVYTLPPSRDELTKNQVSLSCAVKGFYPSDIAVEWESNGQPENNYKTTPPVLDSDGSFFLVSKLTVDKSRWQQGNVFSCSVLHEALHSHYTQKSLSLSPGK
light: DIVMTQTPLSLPVTPGEPASISCQSSKSLLHSTGKTYLNWYLQKPGQSPQLLIYWMSTRASGVPDRFSGSGSGTDFTLKISRVEAEDVGVYYCQQFLEYPFTFGQGTKVEIKRTVAAPSVFIFPPSDEQLKSGTASVVCLLNNFYPREAKVQWKVDNALQSGNSQESVTEQDSKDSTYSLSSTLTLSKADYEKHKVYACEVTHQGLSSPVTKSFNRGEC
notes: Knob/hole heterodimeric IgG1; the second carries hole, LALA and LS; also called anti-TREM2/CH35.23.4
B2: ATV:TREM2 #2 (antibody, human IgG1, kappa, L234A L235A)
heavy 1: B1 heavy 1 with Y385F
heavy 2: B1 heavy 2
light: B1 light
notes: Knob/hole heterodimeric IgG1; the second carries hole, LALA and LS; also called anti-TREM2/CH35.23.1.1
B3: ATV:TREM2 #3 (antibody, human IgG1, kappa, L234A L235A)
heavy 1: B1 heavy 1 with S390V, S414T
heavy 2: B1 heavy 2
light: B1 light
notes: Knob/hole heterodimeric IgG1; the second carries hole, LALA and LS; also called anti-TREM2/CH35.23.3
B4: ATV:TREM2 #4 (antibody, human IgG1, kappa, L234A L235A)
heavy 1: B1 heavy 1 with S390V, S414T
heavy 2: not shown
light: B1 light
notes: Knob/hole heterodimeric IgG1; the second carries hole and LS only, without LALA; also called CH3C.35.23.3 cisLALA
B5: TREM2 Ab (antibody, human IgG1, kappa, L234A L235A, V domains shown)
VH: EVQLVESGGGLVQPGGSLRLSCAASGFTFTDFYMSWVRQAPGKGLEWVSVIRNKANAYTAGYNPSVKGRFTISRDNSKNTLYLQMNSLRAEDTAVYYCARLTYGFDYWGQGTLVTVSS
VL: DIVMTQTPLSLPVTPGEPASISCQSSKSLLHSTGKTYLNWYLQKPGQSPQLLIYWMSTRASGVPDRFSGSGSGTDFTLKISRVEAEDVGVYYCQQFLEYPFTFGQGTKVEIKR
notes: also called corresponding anti-TREM2 antibody; TREM2 IgG

Changes are numbered by the printed parent chain.

In the first test the target is T4, human transferrin receptor (human, UniProt P02786 89-760, limits assumed).
T4 construct: also called Human TfR; TfR
T4 sequence (P02786 89-760 limits assumed): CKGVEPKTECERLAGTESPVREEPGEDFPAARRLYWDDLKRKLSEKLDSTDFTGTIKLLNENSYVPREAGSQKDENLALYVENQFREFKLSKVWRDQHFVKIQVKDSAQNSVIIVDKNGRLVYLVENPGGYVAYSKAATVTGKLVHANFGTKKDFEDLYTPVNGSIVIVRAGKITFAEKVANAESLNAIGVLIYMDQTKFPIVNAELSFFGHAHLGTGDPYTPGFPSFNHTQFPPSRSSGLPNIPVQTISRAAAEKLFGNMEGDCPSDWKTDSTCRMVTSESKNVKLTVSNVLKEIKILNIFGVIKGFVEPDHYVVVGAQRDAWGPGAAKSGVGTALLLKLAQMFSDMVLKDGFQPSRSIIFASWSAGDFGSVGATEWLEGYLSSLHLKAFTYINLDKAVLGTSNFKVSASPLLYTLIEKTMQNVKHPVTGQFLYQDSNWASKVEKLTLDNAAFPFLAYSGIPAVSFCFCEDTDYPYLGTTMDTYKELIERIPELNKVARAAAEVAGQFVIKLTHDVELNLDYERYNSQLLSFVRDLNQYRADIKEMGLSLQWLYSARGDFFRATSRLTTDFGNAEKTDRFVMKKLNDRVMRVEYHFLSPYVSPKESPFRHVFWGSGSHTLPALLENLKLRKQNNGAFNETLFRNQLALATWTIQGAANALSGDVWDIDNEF
Kind of test: SPR (Biacore), antibody captured by anti-human Fab on CM5 chip, human TfR as analyte, 1:1 model. The protocol: Binding of anti-TREM2 protein to human transferrin receptor was determined as follows: anti-human-Fab was immobilized on a CM5 chip, and the anti-TREM2 protein was captured. Full-length human TfR or human TfR apical domain at serial dilution (e.g., concentrations of 1-1,000 nM) was flowed over the chip (180 second association time) and then allowed to dissociate. Fitting was performed using a 1:1 binding model.
B1: the Kd (commonly the equilibrium constant for the complex coming apart) stood at 620 nM.
For the molecule B2, the Kd came to 650 nM.
On to B3, for which the Kd stood at 1400 nM.

For a further test, the target named is T1, recombinant cynomolgus TREM2 ECD. Kind of test: SPR (Biacore), antibody captured by anti-human Fab, cyno TREM2 ECD as analyte. The method, then:
(§1) Surface plasmon resonance (Biacore™ 8K instrument) was used to measure anti-TREM2 antibody affinities for human and cynomolgus TREM2 ECD. Anti-TREM2 antibodies were captured using Human Fab Capture Kit (GE Healthcare Life Sciences, Catalog No. 28958325) on a Biacore Series S CM5 sensor chip (GE Healthcare Life Sciences, Catalog No. 29149604). Serial 3-fold dilutions of recombinant human or cynomolgus TREM2 were injected at a flow rate of 30 μL/min. Antibody binding was monitored for 300 seconds, followed by monitoring of antibody dissociation for 600+ seconds in HBS-EP+ running buffer (GE Healthcare Life Sciences, Catalog No. BR100669). The binding response was corrected by subtracting the RU value from a blank flow cell. A 1:1 Languir model of simultaneous fitting of kₒₙ and koff was used for kinetics analysis. KD binding values were calculated from kₒₙ and koff.
A general note: SPR reads the build-up and loss of mass on a sensor chip optically.
In the case of B1, the Kd was determined as 2.4 nM.
In the case of B2, the Kd is 2.4 nM.
Consider B4, for which the Kd amounted to 2.2 nM.
In the case of B3, the Kd worked out at 2.2 nM.

Another test concerns the target T2, recombinant human TREM2 ECD. Kind of test: SPR (Biacore), antibody captured by anti-human Fab, TREM2 ECD as analyte. The protocol:
as §1
As to B1, the Kd was found to be 5.7 nM.
In the case of B2, the Kd worked out at 5.4 nM.
For the molecule B4, the Kd was found to be 2 nM.
Consider B3, for which the Kd was 3 nM.

In another test the target is T3, human TREM2 expressed on HEK293-H6 cells. Kind of test: flow cytometry on human TREM2-expressing HEK cells. The method, then: (§2) After incubation, the cells were centrifuged and washed in FACS buffer (PBS+0.5% BSA) twice. Mixed cells were resuspended in FACS buffer with human Trustain FcX solution (Biolegend, Catalog No. 422302) at a density of 10⁶/mL per cell line. The mixed cell lines were seeded at 200,000 cells per well in a 96-well round-bottom plate and incubated for 20 minutes at room temperature. After incubation, the cells were centrifuged and incubated with a dose titration of anti-TREM2 antibodies for 45 minutes on ice. After incubation, the cells were centrifuged and washed with FACS buffer three times. The cells were then incubated with secondary antibody (Alexa Fluor 647 AffiniPure F(ab′)2 Fragment Goat Anti-human IgG(H+L), Jackson ImmunoResearch Laboratories, Catalog No. 109-606-088, 1:800 dilution) for 30 minutes on ice. After incubation, the cells were washed with FACS buffer three times, resuspended in 100 μL of FACS buffer, and analyzed by flow cytometry (BD FACSCanto II, San Jose, Calif.), for which 30,000 events were obtained for each sample. Mean fluorescence intensity per cells were calculated by FlowJo software and used for generating dose response binding curve.
On the technique in general: A flow cytometer gives signals particle by particle.
For B1, it took 3.6 nM to reach a half-maximal effect (EC50).
Still for that read-out and setting: next, B2: 4.9 nM; B3: 4.6 nM.

The target is the same in a further test. Kind of test: flow cytometry, dose titration on HEK 293 cells expressing human TREM2 (TREM2-expressing HEK). The method, then:
as §2
Turning to B5, the EC50 (read off the curve) – broadly, the concentration needed to bring the measured effect to its halfway point – is roughly 0.4 nM.

The values above are taken from patent US20220177576A1 (DENALI THERAPEUTICS, published 2022).
